From US20230151091A1 (NEW YORK UNIVERSITY, published 2023)
Changes are numbered by the printed parent chain.

T1: mFz: Fz domain and C-terminal flanking sequence of mouse MuSK (D307 to T494) with C-terminal Avi- and … (mouse, UniProt Q61006 307-494, limits assumed, biotinylated in vitro using the BirA enzyme)
T1 construct: also called mouse Fz; not shown: Avi- and His6-tags
T1 sequence (looked up): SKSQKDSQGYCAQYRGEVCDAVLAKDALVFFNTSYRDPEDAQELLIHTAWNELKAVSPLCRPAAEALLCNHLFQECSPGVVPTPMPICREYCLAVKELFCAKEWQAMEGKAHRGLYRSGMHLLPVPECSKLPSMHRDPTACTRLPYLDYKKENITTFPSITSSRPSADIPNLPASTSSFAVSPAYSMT

T2: hFz: Fz domain and C-terminal flanking sequence of human MuSK (K314-T495) with C-terminal Avi- and His6-tags (human, UniProt O15146 314-495, biotinylated in vitro using the BirA enzyme)
T2 construct: also called human Fz; not shown: Avi- and His6-tags
T2 sequence: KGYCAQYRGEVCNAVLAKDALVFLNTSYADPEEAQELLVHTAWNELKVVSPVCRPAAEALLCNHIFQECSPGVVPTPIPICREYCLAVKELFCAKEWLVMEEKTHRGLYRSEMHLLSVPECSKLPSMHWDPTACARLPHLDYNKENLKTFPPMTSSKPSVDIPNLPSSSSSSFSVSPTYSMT

T3: hECD: full-length extracellular region of human MuSK (E22 to T495) with C-terminal Avi- and His6-tags (human, UniProt O15146 22-495, biotinylated in vitro using the BirA enzyme)
T3 construct: also called human ECD; not shown: Avi- and His6-tags
T3 sequence: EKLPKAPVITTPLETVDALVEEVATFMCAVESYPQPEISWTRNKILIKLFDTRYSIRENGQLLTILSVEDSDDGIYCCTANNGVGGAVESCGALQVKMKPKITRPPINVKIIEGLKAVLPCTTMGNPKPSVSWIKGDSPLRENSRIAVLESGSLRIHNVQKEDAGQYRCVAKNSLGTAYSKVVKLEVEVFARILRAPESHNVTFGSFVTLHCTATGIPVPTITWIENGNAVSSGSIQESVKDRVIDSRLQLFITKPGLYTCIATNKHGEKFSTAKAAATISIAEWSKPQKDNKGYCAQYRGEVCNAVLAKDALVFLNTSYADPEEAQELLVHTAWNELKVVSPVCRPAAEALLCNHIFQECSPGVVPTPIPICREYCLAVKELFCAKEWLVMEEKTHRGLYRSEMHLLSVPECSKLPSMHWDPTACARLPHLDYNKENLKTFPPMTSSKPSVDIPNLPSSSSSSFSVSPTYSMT

T4: mECD: full-length extracellular region of mouse MuSK (E22 to T494) with C-terminal Avi- and His6-tags (mouse, UniProt Q61006 22-494, biotinylated in vitro using the BirA enzyme)
T4 construct: range 22-494; also called mouse ECD; not shown: Avi- and His6-tags
T4 sequence (looked up): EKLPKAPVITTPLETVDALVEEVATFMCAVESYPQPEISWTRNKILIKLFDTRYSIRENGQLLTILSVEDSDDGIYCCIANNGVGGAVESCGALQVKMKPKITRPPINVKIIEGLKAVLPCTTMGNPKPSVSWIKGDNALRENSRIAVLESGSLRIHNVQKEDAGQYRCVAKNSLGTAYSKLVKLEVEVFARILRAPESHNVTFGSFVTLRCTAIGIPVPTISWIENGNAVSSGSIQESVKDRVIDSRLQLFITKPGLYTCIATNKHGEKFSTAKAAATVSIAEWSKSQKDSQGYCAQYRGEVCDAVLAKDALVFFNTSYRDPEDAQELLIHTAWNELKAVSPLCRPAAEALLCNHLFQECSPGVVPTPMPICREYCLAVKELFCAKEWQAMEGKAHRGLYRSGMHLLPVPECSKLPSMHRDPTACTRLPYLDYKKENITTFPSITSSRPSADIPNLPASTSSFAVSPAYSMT

T5: human MuSK (human, UniProt O15146 24-495)
T5 construct: Recombinant protein coated on ELISA plates (R&D Systems cat. 10189-MK) or on the Biacore chip; also called human muscle-specific tyrosine protein kinase; full length human MuSK
T5 sequence: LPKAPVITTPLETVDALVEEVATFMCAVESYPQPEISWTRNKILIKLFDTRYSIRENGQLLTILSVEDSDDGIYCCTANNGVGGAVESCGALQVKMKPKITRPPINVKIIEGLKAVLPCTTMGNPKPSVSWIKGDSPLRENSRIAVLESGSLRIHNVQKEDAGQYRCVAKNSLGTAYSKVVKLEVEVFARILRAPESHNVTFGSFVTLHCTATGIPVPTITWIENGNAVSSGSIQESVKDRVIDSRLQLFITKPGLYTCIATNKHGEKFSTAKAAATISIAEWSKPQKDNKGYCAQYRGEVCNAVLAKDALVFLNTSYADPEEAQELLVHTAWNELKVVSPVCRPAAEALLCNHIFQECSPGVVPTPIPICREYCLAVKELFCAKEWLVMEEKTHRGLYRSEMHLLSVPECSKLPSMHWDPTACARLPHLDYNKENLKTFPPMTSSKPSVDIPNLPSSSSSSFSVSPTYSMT

T6: mouse MuSK (mouse, UniProt Q61006 22-494, limits assumed)
T6 construct: Coated on ELISA plates or on the Biacore chip; also called full length mouse MuSK; mouse MuSK (in house produced in HEK293 cells)
T6 sequence (looked up): T4 sequence (looked up)

B1: X2 Fab (Fab, V domains shown)
VH: EVQLVESGGGLVQPGGSLRLSCAASGFTVSSSSIHWVRQAPGKGLEWVASISSSYGSTSYADSVKGRFTISADTSKNTAYLQMNSLRAEDTAVYYCARSEGDRYVSGYMGMDYWGQGTLVTVSS
VL: DIQMTQSPSSLSASVGDRVTITCRASQSVSSAVAWYQQKPGKAPKLLIYSASSLYSGVPSRFSGSRSGTDFTLTISSLQPEDFATYYCQQSGVWLITFGQGTKVEIK
notes: Fab format
B2: X3 Fab (Fab, V domains shown)
VH: EVQLVESGGGLVQPGGSLRLSCAASGFTISSSSIHWVRQAPGKGLEWVASISSSSGYTYYADSVKGRFTISADTSKNTAYLQMNSLRAEDTAVYYCARSWYEMWMSGYFGFDYWGQGTLVTVSS
VL: B1 VL with G92S, V93S, W94S
notes: Fab format

Legend:
[1] = target: T1, mFz: Fz domain and C-terminal flanking …; experiment: bead-binding titration, Fab format: antigen immobilized on streptavidin beads, MFI by flow cytometry, curve is the 1:1 fit
[2] = target: T2, hFz: Fz domain and C-terminal flanking …; experiment: as above
[3] = target: T3, hECD: full-length extracellular region …; experiment: as above
[4] = target: T4, mECD: full-length extracellular region …; experiment: as above
human MuSK = target: T5, human MuSK; experiment: Biacore T200, MuSK on chip (200RU), 22.2 nM Fab, dissociation pH 5.5
Summary of the method: (§1)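 Surface plasmon resonance was run with both human and mouse MuSK immobilized on the sensor chip. Fab association was always performed at pH 7.4 before the dissociation phase. Kinetic parameters were calculated from the binding curves.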

mouse MuSK = target: T6, mouse MuSK; experiment: as above
Summary of the method: as §1

Row | Binder | EC50 (read off the curve) [1] | EC50 (read off the curve) [2] | EC50 (read off the curve) [3] | EC50 (read off the curve) [4] | koff (human MuSK) | koff (mouse MuSK)
1 | B1 | ~0.5 nM | ~0.5 nM | ~0.9 nM | ~0.6 nM | 0.00034 s⁻¹ | 0.00051 s⁻¹
2 | B2 | ~0.3 nM | ~0.1 nM | ~0.2 nM | ~0.4 nM | 0.00225 s⁻¹ | 0.0246 s⁻¹
